Test results from article doi:10.1101/2024.04.24.590854 (bioRxiv, 2024).

Biological target: reconstituted XPO1:RanGTP nuclear export receptor complex (human | yeast (ScRan), UniProt O14980 1-1071; P32835 1-179, Q71L)
Experiment: fluorescence polarisation

Kd	binding result	Binder
261 nM		{5(6)‑carboxyfluorescein}-SPLDNMIRRLSLAERAQGPR-NH2 [ETV6 P214L(203-222) peptide]
	binds	{5(6)‑carboxyfluorescein}-GLEGDLLEHISLTLSVSGLGA-NH2 [POU4F3 P125L(114-134) peptide]
